Measurements from patent US20240181073A1, “Antibody-Drug Conjugates Comprising an Anti-BCMA Antibody” (Sorrento Therapeutics, Inc., priority 2021, published 2024).

Assays:
[1] = molecular target: T1, Human BCMA (B Cell Maturation Antigen) (human, UniProt Q02223 1-184); assay: cell-based or functional assay
T1 sequence: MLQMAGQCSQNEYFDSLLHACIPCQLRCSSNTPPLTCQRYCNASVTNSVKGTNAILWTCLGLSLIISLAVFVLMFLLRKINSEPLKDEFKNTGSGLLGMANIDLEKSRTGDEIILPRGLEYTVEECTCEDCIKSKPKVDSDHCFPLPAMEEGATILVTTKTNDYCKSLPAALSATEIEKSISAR

K562 (BCMA −) cells = assay: In vitro cell viability assay (Cell Titer-Glo 2.0), Example B1; assay type: cell-based, human; conditions: Table 4; 5-day assays; AB1 clone; read-out: EC50 Values, Cell Line K562
Experimental: (§1) The in vitro efficacies of ADCs anti-BCMA-Compound 1, anti-BCMA-Compound 2, anti-BCMA-Compound 3, anti-BCMA-Compound 4, anti-BCMA-Compound 5, anti-BCMA-Compound 6, anti-BCMA-Compound 7, and anti-BCMA-Compound 8, were evaluated using the following human cancer cell lines: K562, MM.1R and NCI-H929, purchased from the American Type Culture Collection (ATCC; Manassas, VA). The cells were cultured in RPMI-1640 medium (Gibco ThermoFisher; Waltham, MA) supplemented with 10% heat-inactivated fetal bovine serum (FBS: Corning; Corning, NY, USA) and 1× penicillin-streptomycin (Corning) and maintained at 37° C. in a 5% CO2 humidified environment.
(§2) The in vitro assays were performed as follows: Tumor cells were harvested by centrifugation at 300 g for 5 minutes and plated into 96-well clear bottom white-walled plates (5,000 to 10,000 cells/well in 50 μL complete medium) and maintained at 37° C. Cells were then treated in duplicate with 50 μL of test articles prepared at 2× final concentration that were serially diluted in complete medium and incubated at 37° C. for up to 120 hrs. After treatment, inhibition of cancer cell growth was determined using the Cell Titer-Glo® 2.0 Cell Viability Assay (Promega; Madison, WI, USA) as described by the manufacturers' protocol. Luminescence was measured using a Perkin-Elmer Envision 2104 Microplate Reader (Waltham, MA).
(§3) Data were normalized to non-treated controls using Microsoft Excel (Redmond, WA, USA) and analyzed using GraphPad Prism software (version 8; La Jolla, CA, USA). Half-maximal effective concentrations (EC50) were derived from dose response curves were generated using non-linear regression analysis fit to a 4-parameter logistic equation.

[2] = molecular target: T1, Human BCMA (B Cell Maturation Antigen); assay: cell-based or functional assay; remark: listed apart in the source
[3] = molecular target: T1, Human BCMA (B Cell Maturation Antigen); assay: cell-based or functional assay; remark: listed apart in the source
NCI-H929 (BCMA+) cells = assay: In vitro cell viability assay (Cell Titer-Glo 2.0), Example B1; assay type: cell-based, human; conditions: 4-day assays, FIG. 2A
Experimental: as §1, §2, §3

B1: anti-BCMA-AB1-Compound 50 (antibody, human IgG1, V domains shown)
VH: EVQLVESGGGLVKPGGSLRLSCAASGFTSSTAWMSWVRQAPGKGLEWVGRIKSKSDGGTTDYAAPVKGRFTISRDDSKNTLFLQMNSLKTEDTAVYYCAKGGGTYGYWGQGTTVTVSS
VL: QSVLTQPASVSGSPGQSVTISCTGTSSAHGGHYYVSWYQQHPGKAPKLMIYDVSNRPSGVSNRFSGSKSGNTASLTISGLQAEDEADYYCGSYTSSGSYVFGTGTKLTVL
modifications: drug-linker Compound 50 on antibody cysteine thiols (C-lock linkage; positions not stated)
EC50 of cell viability (CellTiter-Glo 2.0), NCI-H929 (BCMA-positive) cells, 120-hour assay [1]: 0.762 nM

B2: BCMA-AB1-1: Compound 1 conjugated with anti-BCMA antibody clone BCA7-2C5 (AB1); DAR 3.8 (conjugate)
VH: EVQLVESGGGLVKPGGSLRLSCAASGFTSSTAWMSWVRQAPGKGLEWVGRIKSKSDGGTTDYAAPVKGRFTISRDDSKNTLFLQMNSLKTEDTAVYYCAKGGGTYGYWGQGTTVTVSS
VL: QSVLTQPASVSGSPGQSVTISCTGTSSAHGGHYYVSWYQQHPGKAPKLMIYDVSNRPSGVSNRFSGSKSGNTASLTISGLQAEDEADYYCGSYTSSGSYVFGTGTKLTVL
EC50 (K562 (BCMA −) cells): > 100 nM

B3: anti-BCMA-AB1-Compound 3 (antibody, human IgG1, V domains shown)
VH: EVQLVESGGGLVKPGGSLRLSCAASGFTSSTAWMSWVRQAPGKGLEWVGRIKSKSDGGTTDYAAPVKGRFTISRDDSKNTLFLQMNSLKTEDTAVYYCAKGGGTYGYWGQGTTVTVSS
VL: QSVLTQPASVSGSPGQSVTISCTGTSSAHGGHYYVSWYQQHPGKAPKLMIYDVSNRPSGVSNRFSGSKSGNTASLTISGLQAEDEADYYCGSYTSSGSYVFGTGTKLTVL
modifications: drug-linker Compound 3 on antibody cysteine thiols (C-lock conjugation; positions not stated)
EC50 of cell viability (Cell Titer-Glo), MM.1R (BCMA+) cells, 5-day assay [2]: 2.28 nM
EC50 of cell viability (Cell Titer-Glo), NCI-H929 (BCMA+) cells, 5-day assay [2]: 0.699 nM
EC50 of cell viability (Cell Titer-Glo), MM.1R (BCMA+) cells, 4-day assay [3]: 10 nM
EC50 of cell viability (Cell Titer-Glo), NCI-H929 (BCMA+) cells, 4-day assay [3]: 2.21 nM
EC50 of cell viability (CellTiter-Glo 2.0), NCI-H929 (BCMA-positive) cells, 120-hour assay [1]: 0.368 nM

B4: BCMA-AB1-2: Compound 2 conjugated with anti-BCMA antibody clone BCA7-2C5 (AB1); DAR 3.4 (conjugate)
VH: EVQLVESGGGLVKPGGSLRLSCAASGFTSSTAWMSWVRQAPGKGLEWVGRIKSKSDGGTTDYAAPVKGRFTISRDDSKNTLFLQMNSLKTEDTAVYYCAKGGGTYGYWGQGTTVTVSS
VL: QSVLTQPASVSGSPGQSVTISCTGTSSAHGGHYYVSWYQQHPGKAPKLMIYDVSNRPSGVSNRFSGSKSGNTASLTISGLQAEDEADYYCGSYTSSGSYVFGTGTKLTVL
EC50 (K562 (BCMA −) cells): > 100 nM

B5: anti-BCMA-AB1-Compound 52 (antibody, human IgG1, V domains shown)
VH: EVQLVESGGGLVKPGGSLRLSCAASGFTSSTAWMSWVRQAPGKGLEWVGRIKSKSDGGTTDYAAPVKGRFTISRDDSKNTLFLQMNSLKTEDTAVYYCAKGGGTYGYWGQGTTVTVSS
VL: QSVLTQPASVSGSPGQSVTISCTGTSSAHGGHYYVSWYQQHPGKAPKLMIYDVSNRPSGVSNRFSGSKSGNTASLTISGLQAEDEADYYCGSYTSSGSYVFGTGTKLTVL
modifications: drug-linker Compound 52 on antibody cysteine thiols (C-lock linkage; positions not stated)
EC50 of cell viability (CellTiter-Glo 2.0), NCI-H929 (BCMA-positive) cells, 120-hour assay [1]: 0.169 nM

B6: anti-BCMA-AB1-Compound 53 (antibody, human IgG1, V domains shown)
VH: EVQLVESGGGLVKPGGSLRLSCAASGFTSSTAWMSWVRQAPGKGLEWVGRIKSKSDGGTTDYAAPVKGRFTISRDDSKNTLFLQMNSLKTEDTAVYYCAKGGGTYGYWGQGTTVTVSS
VL: QSVLTQPASVSGSPGQSVTISCTGTSSAHGGHYYVSWYQQHPGKAPKLMIYDVSNRPSGVSNRFSGSKSGNTASLTISGLQAEDEADYYCGSYTSSGSYVFGTGTKLTVL
modifications: drug-linker Compound 53 conjugated to the antibody (PFP linkage; residues not stated)
EC50 of cell viability (CellTiter-Glo 2.0), NCI-H929 (BCMA-positive) cells, 120-hour assay [1]: 0.398 nM

B7: BCMA-AB1-8 (conjugate)
VH: EVQLVESGGGLVKPGGSLRLSCAASGFTSSTAWMSWVRQAPGKGLEWVGRIKSKSDGGTTDYAAPVKGRFTISRDDSKNTLFLQMNSLKTEDTAVYYCAKGGGTYGYWGQGTTVTVSS
VL: QSVLTQPASVSGSPGQSVTISCTGTSSAHGGHYYVSWYQQHPGKAPKLMIYDVSNRPSGVSNRFSGSKSGNTASLTISGLQAEDEADYYCGSYTSSGSYVFGTGTKLTVL
cell killing of NCI-H929 (NCI-H929 (BCMA+) cells): comparable activity to the Gly2 peptide linker ADC, anti-BCMA-AB1-7

B8: anti-BCMA-AB1-Compound 51 (antibody, human IgG1, V domains shown)
VH: EVQLVESGGGLVKPGGSLRLSCAASGFTSSTAWMSWVRQAPGKGLEWVGRIKSKSDGGTTDYAAPVKGRFTISRDDSKNTLFLQMNSLKTEDTAVYYCAKGGGTYGYWGQGTTVTVSS
VL: QSVLTQPASVSGSPGQSVTISCTGTSSAHGGHYYVSWYQQHPGKAPKLMIYDVSNRPSGVSNRFSGSKSGNTASLTISGLQAEDEADYYCGSYTSSGSYVFGTGTKLTVL
modifications: drug-linker Compound 51 on antibody cysteine thiols (C-lock linkage; positions not stated)
EC50 of cell viability (CellTiter-Glo 2.0), NCI-H929 (BCMA-positive) cells, 120-hour assay [1]: 1.93 nM
